Test results reported in publication PMC8892085, “Molecular insights into the interaction between human nicotinamide phosphoribosyltransferase and Toll-like receptor 4” (The Journal of Biological Chemistry, 2022).
Residue numbers refer to the chain shown, from its start.

B1: human nicotinamide phosphoribosyltransferase (NAMPT), wildtype (enzyme)
chain: MNPAAEAEFNILLATDSYKVTHYKQYPPNTSKVYSYFECREKKTENSKLRKVKYEETVFYGLQYILNKYLKGKVVTKEKIQEAKDVYKEHFQDDVFNEKGWNYILEKYDGHLPIEIKAVPEGFVIPRGNVLFTVENTDPECYWLTNWIETILVQSWYPITVATNSREQKKILAKYLLETSGNLDGLEYKLHDFGYRGVSSQETAGIGASAHLVNFKGTDTVAGLALIKKYYGTKDPVPGYSVPAAEHSTITAWGKDHEKDAFEHIVTQFSSVPVSVVSDSYDIYNACEKIWGEDLRHLIVSRSTQAPLIIRPDSGNPLDTVLKVLEILGKKFPVTENSKGYKLLPPYLRVIQGDGVDINTLQEIVEGMKQKMWSIENIAFGSGGGLLQKLTRDLLNCSFKCSYVVTNGLGINVFKDPVADPNKRSKKGRLSLHRTPAGNFVTLEEGKGDLEEYGQDLLHTVFKNGKVTKSYSFDEIRKNAQLNIELEAAHH
notes: nicotinamide phosphoribosyltransferase (NAMPT), human, UniProt P43490; also called WT; HsNAMPT; source: ClearColi BL21 (DE3), purified (Ni-NTA, PD10; ε-poly-L-lysine resin to remove endotoxin)
B2: NAMPT β-loop double mutant K(42/48)A (enzyme, human)
chain: B1 chain with K42A, K48A
notes: nicotinamide phosphoribosyltransferase (NAMPT), human, UniProt P43490; mutagenised pET15b plasmid; K42 and K48 replaced with alanine; source: ClearColi BL21 (DE3), purified (Ni-NTA, PD10; ε-poly-L-lysine resin to remove endotoxin)
B3: NAMPT α-loop triple mutant K(68>73)A (enzyme, human)
chain: B1 chain with K68A, K71A, K73A
notes: nicotinamide phosphoribosyltransferase (NAMPT), human, UniProt P43490; mutagenised pET15b plasmid; source: ClearColi BL21 (DE3), purified (Ni-NTA, PD10; ε-poly-L-lysine resin to remove endotoxin)
B4: NAMPT α-loop double mutant K(68/71)S (enzyme, human)
chain: B1 chain with K68S, K71S
notes: nicotinamide phosphoribosyltransferase (NAMPT), human, UniProt P43490; mutagenised pET15b plasmid; K68 and K71 replaced with serine; source: ClearColi BL21 (DE3), purified (Ni-NTA, PD10; ε-poly-L-lysine resin to remove endotoxin)
B5: NAMPT β-loop full mutant K/R(42>51)A (enzyme, human)
chain: B1 chain with K42A, K43A, K48A, R50A, K51A
notes: nicotinamide phosphoribosyltransferase (NAMPT), human, UniProt P43490; mutagenised pET15b plasmid; the entire set of positive residues of the β1-β2 K-rich loop (residues 42-51) replaced with alanine; source: ClearColi BL21 (DE3), purified (Ni-NTA, PD10; ε-poly-L-lysine resin to remove endotoxin)
B6: NAMPT β-loop deletion mutant Δ(42>51) (enzyme, human)
chain: MNPAAEAEFNILLATDSYKVTHYKQYPPNTSKVYSYFECREVKYEETVFYGLQYILNKYLKGKVVTKEKIQEAKDVYKEHFQDDVFNEKGWNYILEKYDGHLPIEIKAVPEGFVIPRGNVLFTVENTDPECYWLTNWIETILVQSWYPITVATNSREQKKILAKYLLETSGNLDGLEYKLHDFGYRGVSSQETAGIGASAHLVNFKGTDTVAGLALIKKYYGTKDPVPGYSVPAAEHSTITAWGKDHEKDAFEHIVTQFSSVPVSVVSDSYDIYNACEKIWGEDLRHLIVSRSTQAPLIIRPDSGNPLDTVLKVLEILGKKFPVTENSKGYKLLPPYLRVIQGDGVDINTLQEIVEGMKQKMWSIENIAFGSGGGLLQKLTRDLLNCSFKCSYVVTNGLGINVFKDPVADPNKRSKKGRLSLHRTPAGNFVTLEEGKGDLEEYGQDLLHTVFKNGKVTKSYSFDEIRKNAQLNIELEAAHH
notes: nicotinamide phosphoribosyltransferase (NAMPT), human, UniProt P43490; pET15b plasmid changed with the In-Fusion kit; the β1-β2 K-rich loop fully deleted; also called ΔK(42>51); β-loop deleted mutant; source: ClearColi BL21 (DE3), purified (Ni-NTA, PD10; ε-poly-L-lysine resin to remove endotoxin)

Molecular target: the molecule itself
Assay: SEC; Superose 12 10/300 GL, 50 mM Hepes pH 7.5, 0.3 M NaCl; proteins loaded at 0.9 mg/ml; standards BSA, ovalbumin, carbonic anhydrase
Conditions: not given

Binder	stoichiometry N
B1	2
B2	2
B3	2
B4	2
B5	2
B6	2

Molecular target: T1, Toll-like receptor 4 (TLR4) (human, UniProt O00206 24-629)
T1 construct: Toll-like receptor 4 (TLR4) from the plasmid pEFBOS-TLR4 (Dr Kensuke Miyake); the introduction speaks of the extracellular domain of TLR4; human TLR4 (AAY82270.1) is named for the docking model; Cells were lysed with 0.3% Triton X-100, which may mean the whole receptor; Anchored to the sensor 'via the N terminus of the histidine tail'; also called biosensor-tethered TLR4
T1 sequence (O00206 24-629): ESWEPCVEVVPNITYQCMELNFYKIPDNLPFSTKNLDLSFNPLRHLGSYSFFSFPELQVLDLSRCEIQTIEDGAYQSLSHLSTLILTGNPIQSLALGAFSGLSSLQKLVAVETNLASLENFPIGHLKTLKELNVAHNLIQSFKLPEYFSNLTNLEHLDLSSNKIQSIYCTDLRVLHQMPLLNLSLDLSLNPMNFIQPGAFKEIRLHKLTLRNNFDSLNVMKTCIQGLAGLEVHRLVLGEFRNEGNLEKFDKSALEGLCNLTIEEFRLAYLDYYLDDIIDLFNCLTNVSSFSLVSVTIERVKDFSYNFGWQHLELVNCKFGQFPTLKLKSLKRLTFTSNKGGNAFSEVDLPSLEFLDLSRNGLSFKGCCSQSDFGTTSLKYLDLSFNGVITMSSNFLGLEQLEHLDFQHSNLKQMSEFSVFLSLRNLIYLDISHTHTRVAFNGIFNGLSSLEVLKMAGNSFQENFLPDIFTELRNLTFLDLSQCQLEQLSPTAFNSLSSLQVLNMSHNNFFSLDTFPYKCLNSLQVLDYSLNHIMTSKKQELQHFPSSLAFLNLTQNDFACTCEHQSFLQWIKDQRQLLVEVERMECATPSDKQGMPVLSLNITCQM
Assay: SPR; evanescent wave/resonant mirror optical biosensor (IAsys plus), called surface plasmon resonance by the paper; TLR4 covalently anchored (EDC/NHS) to carboxylate cuvettes, 1.3 ng/mm^2; NAMPT proteins soluble, 1 to 3 nM; PBS; 37 °C; monoexponential fit
Conditions: both partners purified

Binder	Kd	koff	kon
B1	17.8 nM	0.005 ± 0.001 s⁻¹	280000 M⁻¹ s⁻¹
B2	37.1 nM	0.029 ± 0.003 s⁻¹	780000 M⁻¹ s⁻¹
B3	1280 nM	0.004 ± 0.002 s⁻¹	3100 M⁻¹ s⁻¹
B4	20.8 nM	0.01 ± 0.004 s⁻¹	480000 M⁻¹ s⁻¹
B5	630 nM	0.085 ± 0.023 s⁻¹	130000 M⁻¹ s⁻¹
B6	218 nM	0.07 ± 0.02 s⁻¹	320000 M⁻¹ s⁻¹
